Target: His-tagged Pasteurella lipoprotein E (PlpE) of P. multocida (Pasteurella multocida)
Assay: BLI

B1: ABCF2 used as analyte in bio-layer interferometry (natural protein)
chain: MPSDLAKKKAAKKKEAAKARQRPRKGHEENGDVVTEPQVAEKNEANGRETTEVDLLTKELEDFEMKKAAARAVTGVLASHPNSTDVHIINLSLTFHGQELLSDTKLELNSGRRYGLIGLNGIGKSMLLSAIGKREVPIPEHIDIYHLTREMPPSDKTPLHCVMEVDTERAMLEKEAERLAHEDAECEKLMELYERLEELDADKAEMRASRILHGLGFTPAMQRKKLKDFSGGWRMRVALARALFIRPFMLLLDEPTNHLDLDACVWLEEELKTFKRILVLVSHSQDFLNGVCTNIIHMHNKKLKYYTGNYDQYVKTRLELEENQMKRFHWEQDQIAHMKNYIARFGHGSAKLARQAQSKEKTLQKMMASGLTERVVSDKTLSFYFPPCGKIPPPVIMVQNVSFKYTKDGPCIYNNLEFGIDLDTRVALVGPNGAGKSTLLKLLTGELLPTDGMIRKHSHVKIGRYHQHLQEQLDLDLSPLEYMMKCYPEIKEKEEMRKIIGRYGLTGKQQVSPIRNLSDGQKCRVCLAWLAWQNPHMLFLDEPTNHLDIETIDALADAINEFEGGMMLVSHDFRLIQQVAQEIWVCEKQTITKWPGDILAYKEHLKSKLVDEEPQLTKRTHNV
For B1, the Kd was 970 nM.

From article PMC13529201
